These results are taken from patent US20060160743A1 (SANFORD BURNHAM MEDICAL RESEARCH INSTITUTE, published 2006).

Assay [1] has as its target T1, murine single Ig IL-1 receptor related protein (Sigirr/TIR8), full length (murine, UniProt Q9JLZ8 1-409).
T1 construct: Expressed from full-length cDNA in a pMH6-derived plasmid in 293T cells
T1 sequence: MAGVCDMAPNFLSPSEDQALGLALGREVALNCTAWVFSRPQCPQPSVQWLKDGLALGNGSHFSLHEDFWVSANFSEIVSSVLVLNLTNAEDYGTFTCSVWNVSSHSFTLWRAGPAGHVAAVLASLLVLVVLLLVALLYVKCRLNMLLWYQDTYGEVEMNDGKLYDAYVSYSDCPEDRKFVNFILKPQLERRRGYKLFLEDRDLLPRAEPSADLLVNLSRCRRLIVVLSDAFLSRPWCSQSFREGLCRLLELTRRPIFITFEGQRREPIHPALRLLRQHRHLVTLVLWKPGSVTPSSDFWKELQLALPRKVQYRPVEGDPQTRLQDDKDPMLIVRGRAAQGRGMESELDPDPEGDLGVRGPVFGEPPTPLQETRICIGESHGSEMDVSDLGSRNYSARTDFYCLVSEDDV
The assay can be described thus: competition: free peptide against CKRAVR phage on Sigirr/TIR8-transfected 293T cells. The procedure:
(§1) Receptor transfections and phage binding assays were performed as follows. 293T cells were transfected with pMH6-derived plasmids (Roche Diagnostics; Indianapolis, Ind.) encoding HLP/CRIP2, Sigirr/TIR8, MpcII-3-related protein and bc10 using the Fugene transfection reagent (Roche Diagnostics). Briefly, 10 μg of plasmid was mixed with 700 μl of serum-free DMEM and 30 μl of Fugene transfection reagent and incubated for 15 minutes at room temperature before the mixture was added to cells. After forty-eight hours, cells were detached from culture dishes using EDTA and washed once with PBS. Phage displaying CRPPR (SEQ ID NO: 1), CKRAVR (SEQ ID NO: 7), […] (SEQ ID NO: 11) or […] (SEQ ID NO: 12) and nonrecombinant control phage (1×10⁹ p.f.u) were incubated with transfected cells for two hours at 4° C. Unbound phage were removed by five washes with 1% BSA in PBS. Bound phage were rescued by addition of bacteria; binding efficiencies were determined by plaque assay as described above.
(§2) Peptides for competition assays were synthesized at The Burnham Institute peptide facility using Fmoc chemistry in a solid-phase synthesizer prior to purification by HPLC and confirmation of their identity by mass spectrometry. […] After five washes with 1% PBS, bound phage were rescued and quantitated by plaque assay.

The target in assay [2] is T2, receptor clone 5 (carboxy-terminal 92 amino acids, residues 117 to 208, of heart LIM-protein / cysteine-rich … (murine, UniProt P36201 117-208 (rat entry))).
T2 construct: Target clone of the bacterial two-hybrid screen; also called HLP clone; HLP/CRIP2 fragment; not shown: fusion partner encoded by the target vector of the mouse heart cDNA library (BacterioMatch two-hybrid); not described
T2 sequence: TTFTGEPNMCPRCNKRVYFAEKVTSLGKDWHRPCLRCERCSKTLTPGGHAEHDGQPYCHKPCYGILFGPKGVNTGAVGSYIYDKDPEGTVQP
The assay can be described thus: bacterial two-hybrid (BacterioMatch), peptide bait against heart cDNA target clone. On the procedure:
(§3) PCR products were digested with EcoRI and XhoI, and subcloned into the bait pBT plasmid (Stratagene; La Jolla, Calif.) to generate a recombinant library of baits designated “pBT-hp.” pBT-hp plasmids were transformed into XL1-Blue MRF' Kan competent cells, and 2 μl or 5 μl of cells plated on 100 mm LB-chloramphenicol plates to determine the total number of primary transformants. The remaining transformants were pooled and plated on 150 mm LB-chloramphenicol plates. […] The plates were then scraped, and bacteria harvested. After plating 2 μl and 5 μl of the harvested library in order to determine the size of the amplified library, the pool of pBT-hp plasmids was purified from the pooled bacteria using a commercially available maxiprep DNA column. Purified DNA was used to transform BacterioMatch® Two-Hybrid System reporter strain competent cells according to the manufacturer's instructions (Stratagene; La Jolla, Calif.).
(§4) Bacterial two-hybridization experiments were performed with the BacterioMatch® Two-Hybrid System (Stratagene) according to the manufacturer's instructions. Briefly, pBT-hp and heart cDNA library plasmids were co-transformed using 50 ng each plasmid. Aliquots (100 μl) of co-transformants were plated on selective LB plates (500 μg/ml carbenicillin) and incubated at 37° C. for 20 hours before scoring the plates for growth. […]

In assay [3] the target is T3, receptor clone 36 (entire coding sequence of unnamed RIKEN Fantom protein product putatively similar to … (murine, UniProt Q9CZB0 1-169)).
T3 construct: also called MpcII-3-related protein; not shown: fusion partner encoded by the target vector of the mouse heart cDNA library (BacterioMatch two-hybrid); not described
T3 sequence: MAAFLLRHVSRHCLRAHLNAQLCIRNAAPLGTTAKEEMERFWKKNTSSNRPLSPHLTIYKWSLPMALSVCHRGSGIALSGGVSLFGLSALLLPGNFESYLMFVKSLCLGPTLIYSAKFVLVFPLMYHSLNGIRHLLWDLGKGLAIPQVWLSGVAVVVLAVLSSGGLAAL
The description is as above. On the procedure: as §3, §4

Assay [4] has as its target T4, murine bladder cancer-associated protein homolog (bc10), full length (murine, UniProt P62951 1-87).
T4 construct: Expressed from full-length cDNA in a pMH6-derived plasmid in 293T cells
T4 sequence: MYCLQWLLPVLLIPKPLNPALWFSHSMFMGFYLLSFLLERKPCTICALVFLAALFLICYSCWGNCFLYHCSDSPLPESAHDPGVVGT
Nature of the assay: competition: free peptide against … phage on bc10-transfected 293T cells. On the procedure:
as §1, §2

Assay [5] has as its target T5, murine cysteine-rich protein 2 / heart LIM-protein (HLP/CRIP2), full length (murine, UniProt Q9DCT8 1-208).
T5 construct: also called ESP1
T5 sequence: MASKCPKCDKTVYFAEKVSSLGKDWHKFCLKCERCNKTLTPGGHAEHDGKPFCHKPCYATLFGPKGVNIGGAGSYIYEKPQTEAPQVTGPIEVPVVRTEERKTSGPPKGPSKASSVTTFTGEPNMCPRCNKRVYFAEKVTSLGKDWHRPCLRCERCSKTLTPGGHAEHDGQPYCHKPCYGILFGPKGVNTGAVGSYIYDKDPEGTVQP
Nature of the assay: competition: free peptide against CRPPR phage on HLP/CRIP2-transfected 293T cells. The procedure: as §1, §2

Where no end group is shown, it is not given here.

B1: free synthetic peptide CKRAVR (SEQ ID NO: 7) (peptide)
peptide: CKRAVR
notes: also called free peptide CKRAVR; cognate peptide
Turning to B1, the binding result in assay [1] is recorded as “binds”.

B2: CRPPR (SEQ ID NO: 1), peptide insert in bait plasmid pBT-hp (peptide)
chain: CRPPR
notes: Hybrid bait protein of the bacterial two-hybrid screen; not shown: fusion partner encoded by bait plasmid pBT (BacterioMatch two-hybrid); not described, position relative to the peptide n
As for B2, the binding result in assay [2] is “binds”.

B3: CRSTRANPC (SEQ ID NO: 11), peptide insert in bait plasmid pBT-hp (peptide)
chain: CRSTRANPC
modifications: cysteine pairing not given here; also: part of pBT bait fusion protein, position of partner not given here
notes: not shown: fusion partner encoded by bait plasmid pBT (BacterioMatch two-hybrid); not described, position relative to the peptide n
As for B3, the binding result in assay [3] is listed as “binds”.

Consider CPKTRRVPC (also called cognate peptide) [free synthetic peptide CPKTRRVPC (SEQ ID NO: 12)], for which, in assay [4], the binding result is reported as “binds”.

As for CRPPR (also called CRPPR peptide) [free synthetic peptide CRPPR (SEQ ID NO: 1)], the binding result in assay [5] is recorded as “binds”.
